Measured values: the supplement of paper PMC10567573

B1: CLCN6 (parent)
chain: MAGCRGSLCCCCRWCCCCGERETR

Variants of: B1
Assay: protein stability index of a GFP-peptide fusion (GPS, HEK-293T) (PSI 1-6); higher = more stable
Settings: c terminus: a fixed tail appended
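Further: lentivirally expressed fusions sorted by FACS into six bins by GFP to DsRed ratio, PSI derived from sequencing read proportions per bin multiplied by bin number.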

Protein stability index: each site, then its substitutions
C9: Q 2.64, G 2.23, M 2.65, I 1.76, F 1.77, L 1.64, A 3.15, W 2.65, P 1.69, D 1.18, T 2.16, K 1.77, N 1.67, H 3.07, R 1.28, E 1.45, Y 1.69
S7: P 2.19, R 1.37, I 2.55, F 1.91, T 1.77, W 2.47, K 1.5, C 2.52, A 1.5, H 1.89, N 1.09, Y 1.43, L 1.9, Q 1.49
R21: Q 1.39, K 1.79, D 2.82, F 1.06, A 2.37, T 2.77, L 1.76, N 1.87, V 1.66, S 2.18, E 2.27, W 1.52, C 2.56, M 1.08, I 1.5, Y 2.8
G19: C 1.83, F 2.53, M 2.34, N 1.44, Q 1.29, H 1.15, Y 2.41, T 2.02, D 2.22, K 1.8, I 1.45, E 1.86, P 2.17, W 1.66, A 1.49
C11: Q 1.9, N 2.15, Y 2, I 1.68, G 3.4, S 1.77, T 2.24, W 2.26, L 3.23, F 2.72, K 1.17, V 1.41, H 1.3, A 2.42, E 2.27, R 1.97, M 1.84, D 2.23
C18: G 1.79, W 3.21, Y 1.84, P 1.8, D 2.77, A 1.26, M 1.42, K 1.85, L 2.49, Q 2.58, V 1.3, T 1.86, H 2.06, S 2.47, N 1.49
G6: P 1.58, Q 2.28, S 1.82, V 1.37, R 2.52, T 1.59, Y 1.89, W 2.54
C15: V 2.08, D 1.71, Q 2.39, S 2, I 1.87, F 2.99, G 2.04, H 2.6, P 1.5, A 1.97, K 1.82, N 1.76, M 1.65, Y 1.36, L 2.74
R13: N 2.4, W 3.64, V 1.78, S 1.94, F 2.78, L 2.4, M 2.13, E 2.4, T 1.95, Q 1.79, I 1.3, Y 2.57, G 2.27, C 2.02, H 2.06, K 1.1, A 2.01, P 1.76
R24: Y 2.44, T 2.71, H 2.55, G 2.44, N 2.74, E 2.95, I 1.87, Q 2.54, C 3.05, S 2.57, L 2.73, K 2.78, F 1.79, D 2.79, M 1.91, P 2.38
C16: D 2.66, K 1.65, W 2.86, L 1.55, H 1.47, V 2.02, T 1.86, I 2.23, R 1.28, S 1, P 1.33, A 2.12, E 2.22
E22: F 2.16, I 2.15
